Assays:
Test in all cases: SEC
α-synuclein A30P = α-synuclein A30P (UniProt P37840)
α-synuclein A53T = α-synuclein A53T (UniProt P37840)
α-synuclein E46K = α-synuclein E46K (UniProt P37840)

“α-synuclein A30P (from UniProt P37840 1-140) (natural protein)” was tested, and the fraction of oligomers (α-synuclein A30P) was 71.6%.
For “α-synuclein A53T (from UniProt P37840 1-140) (natural protein)”, the fraction of oligomers (α-synuclein A53T) was 87.8%.
“α-synuclein E46K (from UniProt P37840 1-140) (natural protein)” showed a fraction of oligomers (α-synuclein E46K) of 92.1%.

From article PMC9676983
